Patent US20170233472A1 (MacroGenics, published 2017)
Numbering of substitutions follows the chain as printed. Names and notes keep the numbering of the source.

B1: DART-A (bispecific antibody, IgG1)
chain 1: QLVLTQSPSASASLGSSVKLTCTLSSGHKTDTIDWYQQQPGKAPRYLMKLEGSGSYNKGSGVPDRFGSGSSSGADRYLTISSLQSEDEADYYCGTDYPGNYLFGGGTQLTVLGGGGSGGGGEVQLVESGGGLVQPGGSLRLSCAASGFTFSTYAMNWVRQAPGKGLEWVGRIRSKYNNYATYYADSVKGRFTISRDDSKNSLYLQMNSLKTEDTAVYYCVRHGNFGNSYVSWFAYWGQGTLVTVSSASTKGEVAACEKEVAALEKEVAALEKEVAALEKGGGDKTHTCPPCPAPEAAGGPSVFLFPPKPKDTLMISRTPEVTCVVVDVSHEDPEVKFNWYVDGVEVHNAKTKPREEQYNSTYRVVSVLTVLHQDWLNGKEYKCKVSNKALPAPIEKTISKAKGQPREPQVYTLPPSREEMTKNQVSLWCLVKGFYPSDIAVEWESNGQPENNYKTTPPVLDSDGSFFLYSKLTVDKSRWQQGNVFSCSVMHEALHNHYTQKSLSLSPGK
chain 2: QAVVTQEPSLTVSPGGTVTLTCRSSTGAVTTSNYANWVQQKPGQAPRGLIGGTNKRAPWTPARFSGSLLGGKAALTITGAQAEDEADYYCALWYSNLWVFGGGTKLTVLGGGGSGGGGQEQLVESGGGLVQPGGSLRLSCAASGFTFSDYYMSWVRQAPGKGLEWVATIYPSSGKTYYADSVKGRFTISSDNAKNSLYLQMNSLRAEDTAVYYCARDSYADDAALFDIWGQGTTVTVSSASTKGKVAACKEKVAALKEKVAALKEKVAALKE
chain 3: not shown
notes: Three chain Fc Region-containing diabody (knob/hole IgG1 CH2-CH3 with L234A/L235A); C-terminal lysine of the Fc chains may be removed post-translationally; also called ROR1×CD3 bispecific three chain diabody with parental anti-ROR1-VL and anti-ROR1-VH
B2: DART-C (bispecific antibody)
chain 1: QLVLTQSPSASASLGSSVKLTCTLSSGHKTDTIDWYQQQPGKAPRYLMKLEGSGSYNKGSGVPDRFSGSSSGADWYLTISSLQSEDEADYYCGTDYPGNYLFGGGTQLTVLGGGGSGGGGEVQLVESGGGLVQPGGSLRLSCAASGFTFSTYAMNWVRQAPGKGLEWVGRIRSKYNNYATYYADSVKGRFTISRDDSKNSLYLQMNSLKTEDTAVYYCVRHGNFGNSYVSWFAYWGQGTLVTVSSASTKGEVAACEKEVAALEKEVAALEKEVAALEKGGGDKTHTCPPCPAPEAAGGPSVFLFPPKPKDTLMISRTPEVTCVVVDVSHEDPEVKFNWYVDGVEVHNAKTKPREEQYNSTYRVVSVLTVLHQDWLNGKEYKCKVSNKALPAPIEKTISKAKGQPREPQVYTLPPSREEMTKNQVSLWCLVKGFYPSDIAVEWESNGQPENNYKTTPPVLDSDGSFFLYSKLTVDKSRWQQGNVFSCSVMHEALHNHYTQKSLSLSPGK
chain 2: B1 chain 2 with F186L, N195D, A215T
chain 3: not shown
notes: Three chain Fc Region-containing ROR1×CD3 diabody
B3: DART-1 (bispecific antibody)
chain 1: QLVLTQSPSASASLGSSVKLTCTLSSGHKTDTIDWYQQQPGKAPRYLMKLEGSGSYNKGSGVPDRFGSGSSSGADRYLTISSLQSEDEADYYCGTDYPGNYLFGGGTQLTVLGGGGSGGGGEVQLVESGGGLVQPGGSLRLSCAASGFTFSTYAMNWVRQAPGKGLEWVGRIRSKYNNYATYYADSVKGRFTISRDDSKNSLYLQMNSLKTEDTAVYYCVRHGNFGNSYVSWFAYWGQGTLVTVSSGGCGGGKVAALKEKVAALKEKVAALKEKVAALKE
chain 2: QAVVTQEPSLTVSPGGTVTLTCRSSTGAVTTSNYANWVQQKPGQAPRGLIGGTNKRAPWTPARFSGSLLGGKAALTITGAQAEDEADYYCALWYSNLWVFGGGTKLTVLGGGGSGGGGQEQLVESGGGLVQPGGSLRLSCAASGFTFSDYYMSWVRQAPGKGLEWVATIYPSSGKTYYADSVKGRFTISSDNAKNSLYLQMNSLRAEDTAVYYCARDSYADDAALFDIWGQGTTVTVSSGGCGGGEVAALEKEVAALEKEVAALEKEVAALEK
notes: VL: parental; VH: parental; also called ROR1×CD3 bispecific two chain diabody with parental anti-ROR1-VL and anti-ROR1-VH
B4: DART-32 (bispecific antibody)
chain 1: QLVLTQSPSASASLGSSVKLTCTLSSGHKTDTIDWYQQQPGKAPRYLMKLEGSGSYNKGSGVPDRFSGSSSGADWYLTISSLQSEDEADYYCGTDYPGNYLFGGGTQLTVLGGGGSGGGGEVQLVESGGGLVQPGGSLRLSCAASGFTFSTYAMNWVRQAPGKGLEWVGRIRSKYNNYATYYADSVKGRFTISRDDSKNSLYLQMNSLKTEDTAVYYCVRHGNFGNSYVSWFAYWGQGTLVTVSSGGCGGGKVAALKEKVAALKEKVAALKEKVAALKE
chain 2: B3 chain 2 with F186L, N195D, A215T
notes: ROR1×CD3 two chain diabody

Assays:
[1] = biological target: T1, human ROR1 expressed on the surface of cancer cells (human, UniProt Q01973 30-937); assay: cell-based or functional assay
[2] = biological target: T2, His-tagged soluble human ROR1 (shROR1-His) (human, UniProt Q01973 30-406); assay: SPR (Biacore), shROR1-His captured on anti-PentaHis surface, diabody 6.25-100 nM as analyte
T2 construct: also called ROR1 protein; immobilized ROR1; not shown: His-Tag
Procedure: The binding affinity of DART-1, DART-A, DART-B, and DART-C was investigated using Biacore analysis in which each diabody construct was passed over immobilized ROR1. Briefly, shROR1-His was captured on immobilized anti-PentaHis surface and was incubated with DART-1, DART-A, DART-B or DART-C at 6.25-100 nM, and the kinetics of binding was determined via Biacore analysis.

[3] = biological target: T2, His-tagged soluble human ROR1 …; assay: sandwich ELISA: plate coated with shROR1-His, serial dilutions of diabody, bound diabody detected with biotinylated CD3 and streptavidin-HRP; abs @450nm
Procedure: (§1) The ability of the bispecific ROR1×CD3 two and three chain diabodies DART-1 and DART-A to bind both ROR1 and CD3 was examined by a sandwich ELISA. Briefly, microtiter plates were coated with shROR1-His, the plates were washed and incubated with three-fold serial dilutions of DART-1 or DART-A. The amount of diabody binding to the immobilized ROR1 was assessed using a biotinylated CD3 detected with Streptavidin-HRP. All samples were analyzed on a plate reader and binding curves generated. […] The cells were washed twice incubated with biotin-conjugated mouse anti-EK-coil antibody that recognizes the E-coil/K-coil (EK) heterodimerization region (100 μL of 1 μg/mL mixed with 1:500 diluted streptavidin-phycoerythrin) for 45 min. The cells were then washed and resuspended with FACS buffer, and analyzed with a BD FCS Canto II flow cytometer using FlowJo v10 software.

[4] = biological target: T2, His-tagged soluble human ROR1 …; assay: sandwich ELISA: plate coated with shROR1-His, serial dilutions of diabody, bound diabody detected with biotinylated CD3 and streptavidin-HRP; y axis 'Mean Value'
Procedure: as §1

[5] = biological target: T2, His-tagged soluble human ROR1 …; assay: SPR (Biacore)
[6] = biological target: T1, human ROR1 expressed on the surface of …; assay: cell-based or functional assay; remark: listed apart in the source
[7] = biological target: T2, His-tagged soluble human ROR1 …; assay: SPR (Biacore), diabody captured via anti-E/K-coil, shROR1-His as analyte
Procedure: The binding kinetics of DART-1 to DART-6, DART-10 to DART-17, DART-20 to DART-33 was investigated using Biacore analysis in which ROR1 protein was passed over immobilized diabodies. Briefly, each diabody construct was captured on immobilized anti-E/K-coil surface and was incubated with shROR1-His at 25 and 100 nM, and the kinetics of binding were determined via Biacore analysis.

T1 sequence (Q01973 30-937): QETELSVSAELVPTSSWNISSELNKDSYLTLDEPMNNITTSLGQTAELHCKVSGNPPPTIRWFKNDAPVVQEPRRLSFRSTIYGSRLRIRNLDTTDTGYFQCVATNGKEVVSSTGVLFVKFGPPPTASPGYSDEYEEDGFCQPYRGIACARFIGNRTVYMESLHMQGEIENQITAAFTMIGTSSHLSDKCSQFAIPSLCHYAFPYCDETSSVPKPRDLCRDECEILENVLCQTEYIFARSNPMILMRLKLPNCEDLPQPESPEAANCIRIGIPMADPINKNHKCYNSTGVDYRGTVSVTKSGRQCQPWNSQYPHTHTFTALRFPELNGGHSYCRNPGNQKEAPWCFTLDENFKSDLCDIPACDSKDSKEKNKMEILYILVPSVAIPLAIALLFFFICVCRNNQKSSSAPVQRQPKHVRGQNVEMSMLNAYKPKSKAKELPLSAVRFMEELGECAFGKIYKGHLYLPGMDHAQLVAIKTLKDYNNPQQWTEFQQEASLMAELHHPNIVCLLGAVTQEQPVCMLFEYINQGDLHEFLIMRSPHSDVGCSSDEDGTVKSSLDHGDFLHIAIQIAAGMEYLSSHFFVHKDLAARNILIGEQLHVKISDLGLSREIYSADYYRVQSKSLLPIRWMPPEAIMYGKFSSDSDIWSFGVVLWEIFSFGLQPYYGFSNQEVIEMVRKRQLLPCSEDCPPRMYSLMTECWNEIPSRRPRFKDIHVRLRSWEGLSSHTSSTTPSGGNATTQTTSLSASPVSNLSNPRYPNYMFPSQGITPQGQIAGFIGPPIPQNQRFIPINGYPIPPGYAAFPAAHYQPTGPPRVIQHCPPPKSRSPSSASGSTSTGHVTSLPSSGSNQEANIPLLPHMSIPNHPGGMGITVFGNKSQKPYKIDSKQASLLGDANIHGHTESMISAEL
T2 sequence (Q01973 30-406): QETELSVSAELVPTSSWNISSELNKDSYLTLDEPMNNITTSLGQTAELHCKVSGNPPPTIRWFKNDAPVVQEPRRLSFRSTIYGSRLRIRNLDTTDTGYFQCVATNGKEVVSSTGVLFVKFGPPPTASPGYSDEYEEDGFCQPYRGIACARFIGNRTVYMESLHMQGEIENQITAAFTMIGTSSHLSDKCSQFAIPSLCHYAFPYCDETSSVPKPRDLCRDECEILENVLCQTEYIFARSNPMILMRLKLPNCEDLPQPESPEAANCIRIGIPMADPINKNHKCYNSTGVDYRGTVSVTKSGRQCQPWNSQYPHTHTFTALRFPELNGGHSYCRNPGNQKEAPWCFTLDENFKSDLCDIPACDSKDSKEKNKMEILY

Row | Binder | Kd [2] | EC50 (read off the curve) [3] | EC50 (read off the curve) [4] | Kd [7] | further results
1 | B1 | 0.69 nM | ~2 nM | ~1 nM | – | EC50 nM, redirected cell killing of Calu-3 cells by pan T-cells (LDH release) [1]: 0.196 nM; EC50 nM, redirected cell killing of JIMT-1 cells by pan T-cells (LDH release) [1]: 0.161 nM; EC50 nM, redirected cell killing of NCI-H1975 cells by pan T-cells (LDH release) [1]: 0.266 nM
2 | B2 | 0.25 nM | – | ~0.8 nM | – | fold enhancement of binding relative to DART-A [5]: > 2 fold
3 | B3 | – | ~2 nM | – | 4 nM | MR(%) (maximum response), redirected cell killing of HBL-2 cells (LDH release) [6]: 28.5%; MR(%) (maximum response), redirected cell killing of JIMT-1 cells (LDH release) [6]: 42.4%; MR(%) (maximum response), redirected cell killing of Jeko-1 cells (LDH release) [6]: 37.4%
4 | B4 | – | – | – | 1.1 nM | fold enhancement of binding relative to DART-1 [5]: > 2 fold
